Results on 14 variants are retold here after paper PMC5764952 (2018).

The labels stand for the following.
B1: Untagged murine saposin A (SapA) [mouse] / His6-tagged murine β-galactocerebrosidase (GALC) [modified: glycosylated; glycosylated] [mouse] (parent complex)
chain 1: MGKSLPCDICKTVVTEAGNLLKDNATQEEILHYLEKTCEWIHDSSLSASCKEVVDSYLPVILDMIKGEMSNPGEVCSALNLCQSLQE
chain 2: YVLDDSDGLGREFDGIGAVSGGGATSRLLVNYPEPYRSEILDYLFKPNFGASLHILKVEIGGDGQTTDGTEPSHMHYELDENYFRGYEWWLMKEAKKRNPDIILMGLPWSFPGWLGKGFSWPYVNLQLTAYYVVRWILGAKHYHDLDIDYIGIWNERPFDANYIKELRKMLDYQGLQRVRIIASDNLWEPISSSLLLDQELWKVVDVIGAHYPGTYTVWNAKMSGKKLWSSEDFSTINSNVGAGCWSRILNQNYINGNMTSTIAWNLVASYYEELPYGRSGLMTAQEPWSGHYVVASPIWVSAHTTQFTQPGWYYLKTVGHLEKGGSYVALTDGLGNLTIIIETMSHQHSMCIRPYLPYYNVSHQLATFTLKGSLREIQELQVWYTKLGTPQQRLHFKQLDTLWLLDGSGSFTLELEEDEIFTLTTLTTGRKGSYPPPPSSKPFPTNYKDDFNVEYPLFSEAPNFADQTGVFEYYMNNEDREHRFTLRQVLNQRPITWAADASSTISVIGDHHWTNMTVQCDVYIETPRSGGVFIAGRVNKGGILIRSATGVFFWIFANGSYRVTADLGGWITYASGHADVTAKRWYTLTLGIKGYFAFGMLNGTILWKNVRVKYPGHGWAAIGTHTFEFAQFDNFRVEAAR

The assay covers variants of B1. The experiment in a line: pull-down (immobilised GALC, Coomassie SDS-PAGE, quantified); in the presence of Tween-20; n = 3; read off a plot.
Turning to chain 1 E35R, the ratio to parent was about 0.21.

Consider chain 1 K22E, for which the ratio to parent is about 0.05.

chain 1 Q27K: the ratio to parent was about 0.08.

As for chain 1 D55K, the ratio to parent is about 0.12.

For chain 1 L31R, the ratio to parent is about 0.04.

In the case of chain 1 L31N, the ratio to parent was about 0.13.

With chain 1 K66E, the ratio to parent was about 0.77.

For chain 1 D63K, the ratio to parent was about 0.03.

In the case of chain 1 E68K, the ratio to parent is about 1.1.

Turning to chain 1 W40D, the ratio to parent is about 0.8.

As to chain 1 W40F, the ratio to parent is about 0.81.

Turning to chain 1 W40S, the ratio to parent was about 0.77.

Take chain 1 E28K: the ratio to parent is about 0.06.

For the variant chain 1 E52K, the ratio to parent is about 0.06.
